Source: publication PMC4167889 (Molecular cell, 2009)

Columns and labels:
[1] = target: recombinant wild-type p105, His-tagged (E. coli) (UniProt P25799); experiment: SEC
[2] = target: the molecule itself; experiment: AUC

stoichiometry N [1]	Molecule	stoichiometry N [2]
1	p50, the 50 kD N-terminal product of recombinant p105 (E. coli) (domain or fragment)	
	recombinant wild-type p105, His-tagged (E. coli) (natural protein, UniProt P25799-1 1-971, looked up) MADDDPYGTGQMFHLNTALTHSIFNAELYSPEIPLSTDGPYLQILEQPKQRGFRFRYVCEGPSHGGLPGASSEKNKKSYPQVKICNYVGPAKVIVQLVTNGKNIHLHAHSLVGKHCEDGVCTVTAGPKDMVVGFANLGILHVTKKKVFETLEARMTEACIRGYNPGLLVHSDLAYLQAEGGGDRQLTDREKEIIRQAAVQQTKEMDLSVVRLMFTAFLPDSTGSFTRRLEPVVSDAIYDSKAPNASNLKIVRMDRTAGCVTGGEEIYLLCDKVQKDDIQIRFYEEEENGGVWEGFGDFSPTDVHRQFAIVFKTPKYKDVNITKPASVFVQLRRKSDLETSEPKPFLYYPEIKDKEEVQRKRQKLMPNFSDSFGGGSGAGAGGGGMFGSGGGGGSTGSPGPGYGYSNYGFPPYGGITFHPGVTKSNAGVTHGTINTKFKNGPKDCAKSDDEESLTLPEKETEGEGPSLPMACTKTEPIALASTMEDKEQDMGFQDNLFLEKALQLARRHANALFDYAVTGDVKMLLAVQRHLTAVQDENGDSVLHLAIIHLHAQLVRDLLEVTSGLISDDIINMRNDLYQTPLHLAVITKQEDVVEDLLRVGADLSLLDRWGNSVLHLAAKEGHDRILSILLKSRKAAPLIDHPNGEGLNAIHIAVMSNSLPCLLLLVAAGAEVNAQEQKSGRTALHLAVEYDNISLAGCLLLEGDAHVDSTTYDGTTPLHIAAGRGSTRLAALLKAAGADPLVENFEPLYDLDDSWEKAGEDEGVVPGTTPLDMAANWQVFDILNGKPYEPVFTSDDILPQGDMKQLTEDTRLQLCKLLEIPDPDKNWATLAQKLGLGILNNAFRLSPAPSKTLMDNYEVSGGTIKELMEALQQMGYTEAIEVIQAAFRTPATTASSPVTTAQVHCLPLSSSSTRQHIDELRDSDSVCDSGVETSFRKLSFTESLTGDSPLLSLNKMPHGYGQEGPIEGKI	2
